The series is described as follows: label from the status in PepcDB records.
Turning to “MRFPPLLFFQDSEAVKRIANSVRGTKDDDAEIKDHSMRFIRNAISGDQQKEILNVDMLRYIAWVLVALNENIVTARTVIRERDAVEDALKNQQPEDIENFADDLKINMKYNRDLERFEIGVFDFVKYASRVTGSQYRLSNQSVIKGIVYCQKDVAIKILRESFVSNMFKVIDSIDQTTASPVLSDQTDSINELREFYKKSVYAKLTIGRGNTKAFPPCMKEIIRNLHEGINVPHMGRLAIASFLHKVGYTEDEIVEYFRNAPDFDESITRYQIKHLSGEISGVEYSPPKCETMRSNHLCFMDDDKLCHQDWMKHPLTYYEVKSRRLGLEHHHHHH”, the protein production result is given as “failed”. Regarding “MRFRDRRHAGALLAEALAPLGLEAPVVLGLPRGGVVVADEVARRLGGELDVVLVRKVGAPGNPEFALGAVGEGGELVLMPYALRYADQSYLEREAARQRDVLRKRAERYRRVRPKAARKGRDVVLVDDGVATGASMEAALSVVFQEGPRRVVVAVPVASPEAVERLKARAEVVALSVPQDFAAVGAYYLDFGEVTDEDVEAILLEWAG”, the protein production entry is “not failed”. With “MRFRNAILFVALAIAWGSAFTAIKAGLEYFPPILFAAFRYDLAGLLMLGYAVYATDQWVPKSRTDWIVVGIGGSLLIAAYHIFLFVGEQGTTSAAAAIVVSLSPILTTGFARAFLPDERLTTLGIVGLLVGFLGVGVLSNPDPGNLLNPRTVSLFLVFLAAASFALGSVLTRRFDDDLEIETMEAWSMLLGAVLMHGISFGVSESVADVQWTTEAVLALLYLVVVASALGFLIYFDLLERLGPIEINLVSYAAPVVAAATGLLFLSETPTVYTGVGFTCILVGFGLLKRDALRNEVARFSGTPNRGE”, the protein production entry was “failed”. On to “MRFSSIFKIIILNIFISKMAHAAVCEERYPADSEECQYVQELEQKAEQGDESAQFALGSWYAEGRYVKPDYKLAIKWLEKAGKQGSDFSYFILGYHYNYGENFPLSRQKALEWYRKAAELGDSSTQEILGDAYMYGDGFPQNTQLALEWYRKAASPTNDAGVVRGQGSASSAQFKLGVMYAHGQGVPQDYQQTAILMRKAAENMYYPAQLYLGVAYFYGEGVPQDYRQAVYWLNEGIPGSYTPGHIPLSALYDKAHPADRVHSQTWYRKTAQRVMAKVQYNFGVWYYNGYHLLKDHNLALEWYRRAAAQGLAEAQDAIGVMFMQGEGVSQDYQQALAWYRKAARQGLPAAQTHLGIMSAFGRDVAQSDRQAIAWYRKAAKQDFAKAQYQLGVAYSTGRGVPENSRNALKWYLKAAEQGFTPAQSALGEIYAHGRQGVPKDNKQAYIWYYMASMYTEKSKDDCSALIAERNRLKGTLTPDQLSETYAAFNLIWRKIDQSKEAKKIARKKY”, for which the protein production result was “failed”. The entry for “MRFVVAFFWTFLLTQMACYIVGAMNGAGYDLQTSVIMGFIITAAVIVLGEIMPVKQDASQH” is “failed”. As for “MRGEFLSRSADETREYARRFASGLKPGDTVCLTGPLGAGKTEFMRGITEAFGCEEQLSSPTFSLMNIYEGLLRGQPFELHHFDLYRLESEKELDSAGFDDYLSGPFLSVVEWGERFASLDRRYTRRVQLFIAGESQRKIVIT”, the protein production entry is “failed”. For “MRGLRSESKVLELVVIPADHSIAELLKMKENEPVNKLVRVRYAEGEPLQYHTSYIPWKAAPGLAQEECTGSLFELLRTKYNIEISRGTESIEPILTDETISGHLLTNVGAPAFLSESLTYDKNEEVVEYAQIITRGDRTKFTVEQSYHS”, the protein production entry is “failed”. For the sequence “MRGTAAIEGPGSQSMITRRGFLRFIGGSFLTAAALGAYAVGIEPMLLTHVKRYALTPPHWPDGLKLRVVALADIHACRPWMTQERIASLVEDANALQPDLIVLLGDYIAGMPLVTGPVTPSQWASALSGLKAPLGVLSILGNHDWWSDGFAQRAGAGPIIARKALEKVGIPVLENDVVRLEKDGQSVWIAGLADQLALLPARKGDDCKGLDDLDGTLAKVGDTAPIILLAHEPDIFPTVPSRVSLTLSGHTHGGQVRLFGYSPVVPSRFGNRYAYGHVVEKDRNLIVSGGLGFSIMPVRFGVRPEILQIDLG”, the protein production result is recorded as “failed”. Consider “MRGWILYKETATQLKPEWYEIERLLAAAKADNIELEVYAPDEFDLTVTREDNKSILLNGQPVELPDFIIPRMGSGTTYFALAIIRHLERLGVYCLNPSKAIEIVKDKLFSQQLLAEKNLPTPKTMLVKFPVDIDLVERHLGFPVVIKTLSGSQGSGVFLSHKAREFDDLMQLIEATNKNANIILQEFIANSHGRDLRVFTIGGRVAGCYERRGQEDSFKANVSAGGSARPFDITPEIEWLATQTANILDLDVAGIDLLFDNGHYKICEANSSPGFEGLESCLNVDIAAQILHFIRIRLGMFNKDEKNSDPQLTHAGPALANNVTSSKAAE”, for which the protein production entry was “failed”.

“MRGWTAVTDTAGTPSGDGPEQAAVPGPGGGASPIGAGLVRRRRRWLRHTAFGVAALVLGAAGAGWAVYEKLNSNITADEAAAAELARYEKERPTSLVRDAQNILLIGSDSRSGDGNSQYGRDTGTERSDTTILLHLPANRHSATAVSLPRDLMVDIPSCRRPDGTRTAPTFAMFNQAFETGGSACTIRTAEKLTNVRIDHHMVVDFSGFKEMVDAVDGVEVCLKDPIDDKDAKLRLPAGKQLLDGEQALGYVRARKSIGNGSDTDRMDRQQRFLGALVNKVQGNDVLLNPVKLYPVLDAATSSLTTDPDLASLRGLYELVRGMRNIPPERVQFLTVPRTSYVNNANRDQLVEPDAEKLFARLRADAPLEVAKDYAGYDEQSGGDGTLSGKPLDTPAGTPDPTPTFRGNTAAEDGCE”: the protein production result was “failed”. For the sequence “MRHDDARGRPGTRIAWRATFAAKRGEALRADHLRYRPQAGSPGALHCFVLDCSASMLTAERLARAKGLVVALFDSLARERADAALVCFGGNSAGVRFGPAVPRWWNERWLAPVGAGGGTPLARGIGAATRLLARAARRRPRQQRWLWLLSDGRTTEAPARPAFADRIVIVDFDDAAVRLGRCERLAHAWGAALVTPQALERGGG”, the protein production entry is “failed”. Take “MRHITTHDAPATGLRSIADTSWHVRGACHGMDIEDADAVFFPGPRDHEEIAEAKELCGWCPVRRACLDFALENVLKEGVWGGLTEAERRPL”: the protein production result was “failed”. Regarding “MRIDTQEQLVTLLNALFEKVGINLEQVSKLDNYGVMFSVPGTMKPLIATLKTVTTPTNWNNETNLGHYKSADENWLLCLKPAPHSVFCIATVCSLHEKHLEQYIETSEKKQDRRIAAEHGDPEAQYYTAQDCEDKTEALFWYRKAGEQNHYWALYQIALMYEAGEGGLEKDFAQAILWRGKAAEQGSDAAARDLAEMYEEGTADIPQDLTLAIFWYERWLELSPVMRRMIKPKIKSLKAALSQRMNE”, the protein production result was “failed”. With “MRIEAAELRILELPLKFRFETSFGVQTKRTILLLRLFGEGLEGLGEGVMERLPLYREETVAGARYLLEEVFLPRVLGRDLPNPEALREALAPFRGNPMAKAVLEMAFFDLWAKALGRPLWQVLGGVRQAVEVGVSLGIQPSVEDTLRVVERHLEEGYRRIKLKIKPGWDYEVLKAVREAFPEATLTADANSAYSLANLAQLKRLDELRLDYIEQPLAYDDLLDHAKLQRELSTPICLDESLTGAEKARKAIELGAGRVFNVKPARLGGHGESLRVHALAESAGIPLWMGGMLEAGVGRAHNLHLATLPGFTKPGDVSSASRYWEEDIVEEALEAKDGLMPVPEGVGIGVHLKLPFVERVTLWQRYMSAS”, the protein production result is reported as “not failed”. In the case of “MRIEVVNVSHIFHRGTPLEKKALENVSLVINEGECLLVAGNTGSGKSTLLQIVAGLIEPTSGDVLYDGERKKGYEIRRNIGIAFQYPEDQFFAERVFDEVAFAVKNFYPDRDPVPLVKKAMEFVGLDFDSFKDRVPFFLSGGEKRRVAIASVIVHEPDILILDEPLVGLDREGKTDLLRIVEKWKTLGKTVILISHDIETVINHVDRVVVLEKGKKVFDGTRMEFLEKYDPRFFTSKMLVMRRLVLKGEDPFSMSDDELLERVCNS”, the protein production result is “not failed”. Turning to “MRIFIAFEGSFEAFDVAAHTSVGAIKQMVKDYFHIPLSEDKQGRWYLELTYAGAALKNNWSLSDVGISFCSTLKCFVKKEDKPTLYVFNAVTQETMAIKENMSILDRKVSDLRMLVTLSCGFPVSVYCLRTPAGLEMYDCNTLKDYQTDIGTTLRLDVWDGWKEFLMGCLLGQKPKVQRYLSKEGPVLKYQKRVALYIAAFHGHTELTEWALKQGAQPHEAVGVHPCRAWCHEALHTDVSNCPIHAAAEAGQLLILKAFVNFSVLCLECKNAAGQSPLAIASKHQHKDCVLYLLSKIWSTVSFLKLSVPMRIYIKIKQWILRAQTRRCHKSQPSRARVSGAKVGDTVMVDGFTKPKMTSKSWYKAEDKSWHTAQSKLPPCKQQPSRKPIGSLPMSQHDTKKQIFTFPSLVDAKNFSEVQSYQQENQKKIAAPARKEKNIKNPYLPQVPLPPVSRVHYAHPQFYCTPPSGDCLLRSLFKSFSEHSGRTPRENAIYCLAVASAFKEKRWLQQLEIARVLAKRSISNLTVKGGPAKCENYPESVL”, the protein production result is reported as “failed”. Turning to “MRIGMRLLLGYFLLVAVAAWFVLAIFVKEVKPGVRRATEGTLIDTATLLAELARPDLLSGDPTHGQLAQAFNQLQHRPFRANIGGINKVRNEYHVYMTDAHGKVLFDSANKAVGQDYSRWNDVWLTLRGQYGARSTLQNPADPESSVMYVAAPIMGGSRLIGVLSVGKPNAAMAPVIKRSERRILWASAILLGIALVIGAGMVWWINRSIARLTRYADSVTDNKPVPLPDLGSSELRKLAQALESMRVKLEGKNYIEQYVYALTHELKSPLAAIRGAAEILREGPPPEVVARFTDNILTQNARMQALVETLLRQARLENRQEVVLTAVDVAALFRRVSEARTVQLAEKNITLHVMPTEVNVAAEPALLDQALGNLLDNAIDFTPESGCITLSAEVDQEHVTLKVLDTGSGIPDYALSRIFERFYSLPRANGQKSSGLGLAFVSEVARLFNGEVTLRNVQEGGVLASLRLHRHFT”, the protein production result is “failed”. For “MRIHDIDPDNRPRERFLRSGKESLSPAELLALILRSGTAGLNIIDTCNKLISEHGLERLADLSIQELQKTPGIGEAKAMQIAAIFELQRRLHFARNMNLKVKGARDVFEYMKGRIPDETKEHLFVLFLSTKNQILRHETITIGTLTASLIHPREIFKAAIRESAHSIILVHNHPSGDVQPSNADKQVTSILKKAGDLLQIELLDHVIVGNNDWFSFRDHALL”, the protein production entry is “failed”. Turning to “MRIIKFPEQISEDIIHYTFLDDIISYNCEKCRGSCCHVNNSLLLDAKTASFLKRTYLKDFIVSDDSVSLLSCGKKCWFHSELGCTINDLGLNKPLTCELYPFHIKKIQNFYIVSFTPCPTFQLNLGEGQRYKDIEDVVLRYIKTGVPVFSPSLHVSEERLKYEIEYQNNFKNTLSEYYRTKTADGTTEFKEYEKWYIYYLDFRWGSIPLSYTSSQANQFWNLYKRVCEDVYKKISYIRTDNIYFIIANQFNKTISKHFQLNFIDKELEHHHHHH”, the protein production entry is “not failed”. The entry for “MRIKNKCLVLLIPLGISIMFDIRVKAFQPVSHYVVIEQAESKMSNDSIIRKAIEAYPNVAAWGSVGPDLGYMQVGELGDYSPWGDRYHYYKVGTYAAKQLKNALETRDMKKIAFAAGWISHVTGDLACHGIYVNPECGVYLDNKDGRKQHKHMEAEAEPYAWVNIAGHSINDYNSNNMSNNVFKGTDDIPFDLMNETSKEVYGQSPSTAEEKLWASTLLTGLRTGVGYSYTDYNESKQFLSINSREQRLNASFSQGINQCYKLLTYSENGDYSKFTDRWNLDVGKSSSPISSLTTIISTGTNLGSGTDDDIYFGIHLNNGQKKEWLLDKETYNDFENGATDEYYLYINDMDFLPTMVDKVWVRKNSTGSFAGNWFFKALRIDANGNDVLSVSPNEWITDSNSQAEFNSDWSSVTNLTDPEF” is “failed”.

For the origin of these results see a protein production outcome set (Wang et al. 2014).
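Further: failed if final PepcDB status was selected cloned or expressed and not failed if soluble or beyond.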
